Reference: the supplement of paper PMC9732359
± gives the uncertainty stated by the source.

Assay: protein stability index of a GFP-peptide fusion (yeast GPS) (PSI 1-4); higher = more stable; sorted into four equal gates, so the index is relative within each strain
In short: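 The protein stability index of a peptide was calculated by multiplying its read frequency in each gate by that gate's number and adding the products. The peptides were tiled 17-residue stretches of yeast proteins, fused downstream of GFP on a Cherry-expressing plasmid and carried in yeast as a pooled library. Mid-log cultures in leucine-free medium were sorted into four equal gates by GFP/Cherry ratio, and each gate's plasmids were PCR-amplified and Illumina-sequenced.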

| Sequence | protein stability index (doa10∆) | protein stability index (pdr5∆) | protein stability index (san1∆) | protein stability index (ubr1∆) |
| --- | --- | --- | --- | --- |
| MVLVQDLLHPTAASEAR [RPS27A] | 2.45 ± 0.19 | 3.37 ± 0.089 | 3.17 ± 0.19 | 3.17 ± 0.11 |
| IAGHDEFNGFSLYQVDP [PRE8] | 3.15 ± 0.09 | 3.31 ± 0.15 | 3.21 ± 0.11 | 2.94 ± 0.095 |
| DLKDILEKVVPLINVVV [BRR2] | 2.22 ± 0.12 | 1.91 ± 0.077 | 2.37 ± 0.15 | 2.51 ± 0.065 |
| IPKQLLDDEKIFSQTTN [YJL039C/NUP192] | 2.55 ± 0.077 | 2.77 ± 0.051 | 2.69 ± 0.059 | 3.1 ± 0.052 |
| KNNNGDEKNKNNNEDNE [MED2] | 3.23 ± 0.12 | 3.17 ± 0.11 | 2.87 ± 0.11 | 3.15 ± 0.11 |
| LNPNEYFSVTTARRNVS [SWI3] | 1.64 ± 0.072 | 1.67 ± 0.082 | 1.85 ± 0.14 | 2.19 ± 0.076 |
| QINNVHLIPNEIKGASE [RPN4] | 2.84 ± 0.064 | 2.75 ± 0.059 | 2.42 ± 0.06 | 2.76 ± 0.052 |
| SDNIASLQYINIRGNTI [SMD1] | 3.08 ± 0.059 | 3.22 ± 0.056 | 2.86 ± 0.063 | 3.01 ± 0.048 |
| KNNNNANNNGSNLQRAQ [GAL11] | 3.38 ± 0.13 | – | 3.28 ± 0.14 | 3.02 ± 0.11 |
| NGNKDSSFNFNKNLPFV [SWI1] | 3.21 ± 0.058 | 3.38 ± 0.068 | 3.28 ± 0.051 | 3.31 ± 0.043 |
| YKLTNDEEGIFSRFVDQ [YCG1] | 2.94 ± 0.12 | 2.83 ± 0.13 | 3 ± 0.085 | 2.94 ± 0.057 |
| KLIEKKSAYANTEKDYK [SMC2] | 2.71 ± 0.057 | 2.59 ± 0.059 | 2.83 ± 0.053 | 2.88 ± 0.045 |
| GVDPTGSHLFSIHAHGS [PUP1] | 2.31 ± 0.1 | 2.52 ± 0.15 | 2.5 ± 0.11 | 2.06 ± 0.12 |
| ITHTENYNDLIVNYEDL [BRN1] | 3.17 ± 0.09 | 2.94 ± 0.12 | 2.56 ± 0.14 | 3.2 ± 0.072 |
| DYKGAKLNVVGWFHSHP [RRI1] | 2.81 ± 0.097 | 2.49 ± 0.1 | 2.38 ± 0.18 | 2.59 ± 0.061 |
| INGINWRFHTPQKYVLH [SIN4] | 2 ± 0.057 | 1.92 ± 0.052 | 1.83 ± 0.097 | 1.97 ± 0.042 |
| VYTLACRSCPYEFPIEG [RPC11] | 1.22 ± 0.16 | 1.36 ± 0.15 | – | 1.54 ± 0.17 |
| ISNKDVIFKIRDRTSGQ [SRB4] | 3.42 ± 0.11 | 3.02 ± 0.13 | 3.42 ± 0.077 | 3.14 ± 0.11 |
| DFTLPEDFAPLLAEEEE [PRP8] | 3.42 ± 0.19 | 3.64 ± 0.22 | 3.23 ± 0.11 | 3.2 ± 0.084 |
| KLSDIFLSKPSKALYPD [SNF2] | 2.53 ± 0.041 | 2.84 ± 0.049 | 2.61 ± 0.042 | 2.7 ± 0.041 |
| ELEQLSSEALEAARICA [RPL10] | 1.21 ± 0.071 | 1.35 ± 0.059 | 1.33 ± 0.14 | 1.12 ± 0.06 |
| PITASTSRVFAKIISKA [YML103C/NUP188] | – | 3.02 ± 0.14 | 2.53 ± 0.21 | – |
| SLHILMIFWNDICQIDT [SRB8] | 1.36 ± 0.031 | 1.33 ± 0.032 | 1.52 ± 0.053 | 1.92 ± 0.029 |
| LKETVIPSLANNGNNST [POP6] | 2.41 ± 0.058 | 3.01 ± 0.065 | 2.54 ± 0.068 | 2.56 ± 0.05 |
| HFFKWIEFIVYHQLLSD [SRB8] | 1.45 ± 0.05 | 1.3 ± 0.046 | 2.03 ± 0.08 | 1.2 ± 0.041 |
| VKIHSQESLLSRTFDKY [SRP72] | 2.92 ± 0.053 | 2.79 ± 0.071 | 2.96 ± 0.055 | 2.57 ± 0.041 |

| Sequence | protein stability index (doa10∆) | protein stability index (pdr5∆) | protein stability index (san1∆) | protein stability index (ubr1∆) |
| --- | --- | --- | --- | --- |
| AQFRVPRYHSKNSFQQA [SWP82] | 2.5 ± 0.075 | 2.57 ± 0.065 | 2.37 ± 0.083 | 2.62 ± 0.047 |
| CASIPIAIIKDTSDIIV [RRP46] | 1.73 ± 0.044 | 1.88 ± 0.043 | 1.75 ± 0.065 | 1.6 ± 0.04 |
| QTYGETTAVDALQKGLK [RPC19] | 2.03 ± 0.13 | 1.1 ± 0.12 | 1.16 ± 0.29 | 1.14 ± 0.082 |
| TENATENDQQDNEEWMN [LIN1] | 3.23 ± 0.072 | 3.03 ± 0.067 | 3.06 ± 0.062 | 2.77 ± 0.05 |
| GELGEIRALQPKLKEGA [YIL149C/MLP2] | 3.15 ± 0.11 | 3.34 ± 0.19 | 2.81 ± 0.15 | 3.36 ± 0.093 |
| MQENDKINQERLERRIN [CSI1] | 1.62 ± 0.065 | 1.92 ± 0.062 | 1.26 ± 0.1 | 1.27 ± 0.044 |
| SEKQNDEEAAGASTVMK [PRP8] | 3.36 ± 0.15 | 3.18 ± 0.093 | 3.38 ± 0.11 | 3.43 ± 0.11 |
| QESLLSRTFDKYSKLVD [SRP72] | 2.83 ± 0.059 | 2.9 ± 0.068 | 2.99 ± 0.055 | 2.7 ± 0.04 |
| DRTLPHFSKDDYSPESK [RPO21] | 3.07 ± 0.1 | 3.22 ± 0.074 | 2.85 ± 0.099 | 3.42 ± 0.093 |
| EIESIDKLPQFVDENTF [RPN1] | 3.08 ± 0.13 | 3.4 ± 0.22 | 3.09 ± 0.085 | 3.32 ± 0.1 |
| KSAISNNFRESDIIILK [SIR4] | 3 ± 0.08 | 2.56 ± 0.065 | 2.96 ± 0.06 | 3.09 ± 0.059 |
| KAMDIPIGRHEELLAQY [SWP82] | 2.07 ± 0.044 | 2.25 ± 0.043 | 2.13 ± 0.068 | 2 ± 0.029 |
| NDANITSNKEGFNSIWK [SSN2] | 3.17 ± 0.077 | 3.26 ± 0.079 | 3.3 ± 0.051 | 3.09 ± 0.069 |
| AFADRLGQYVQAHTLYN [PRE10] | 2.22 ± 0.085 | 1.95 ± 0.066 | 1.74 ± 0.12 | 2.03 ± 0.11 |
| QPNARALERYDEAEGRF [SMC1] | 3.44 ± 0.12 | 3.58 ± 0.1 | 3.17 ± 0.074 | 3.29 ± 0.097 |
| QSSRVVSLSQLLFIVGQ [YCS4] | 1.75 ± 0.063 | 1.33 ± 0.048 | 1.83 ± 0.11 | 1.4 ± 0.054 |
| NTSIAQFDIQSPLYMDT [YML103C/NUP188] | 2.99 ± 0.08 | 2.89 ± 0.049 | 2.08 ± 0.081 | 3.01 ± 0.058 |
| ARNVQVHQEPYVFNARP [RPS0A] | 3.01 ± 0.098 | 3.25 ± 0.063 | 2.99 ± 0.051 | 3.06 ± 0.063 |
| VLADALNAINNAEKTGK [RPS22A] | 2.92 ± 0.056 | 3.27 ± 0.059 | 2.67 ± 0.06 | 2.97 ± 0.049 |
| TNLISKISLLRPSFQNN [SWP82] | 2.52 ± 0.05 | 2.69 ± 0.05 | 2.53 ± 0.071 | 2.72 ± 0.064 |
| TSEEQTKFLAKNGVIPE [SWP82] | 3.71 ± 0.26 | 3.6 ± 0.23 | – | 3.3 ± 0.098 |
| EDEDDGESEKSSDVDMD [RPC53] | 3.28 ± 0.11 | 3.66 ± 0.14 | 3.29 ± 0.19 | 3.32 ± 0.094 |
| NYNHLLPTRYTLDVEAF [RPL27A] | 1.45 ± 0.045 | 1.61 ± 0.047 | 1.57 ± 0.087 | 1.52 ± 0.032 |
| GYKMIPGAKPLQVGDVV [FAS1] | 2.43 ± 0.1 | 2.44 ± 0.1 | 2.37 ± 0.1 | 1.79 ± 0.14 |
| IRQYALATAHIYLSRFL [SSN8] | 1.38 ± 0.034 | 1.34 ± 0.036 | 1.26 ± 0.12 | 1.11 ± 0.04 |
